Laboratory results published in article doi:10.1101/2023.08.30.554051.

Molecular target: human skeletal myosin IIa subfragment-1 (S1), oligonucleotide-labeled, on DNA origami-based thick filament (human)
Experiment: high-speed atomic force microscopy

duty ratio: 0.87
mean detachment time: 0.17 s
time constant of the attachment time: 1.1 s
time constant of the detachment time (fast): 0.063 s
time constant of the detachment time (slow): 0.68 s
Substance: actin filament (from UniProt P68135 1-377) (natural protein)
